The text below walks through data of US20220282217A1 (BIONTECH US, published 2022).

In assay [1] the target is T1, HLA-B08.01 (human).
T1 construct: Purified class I MHC
As to the kind of experiment: pMHC-I dissociation half-life, 125I-b2m. Summed up:
(§1)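 Biotinylated MHC-I heavy chain made in E. coli, captured on streptavidin plates and complexed with peptide and radiolabelled light chain. Dissociation started with excess unlabelled light chain at 37 °C. Stability is the half-life in hours from scintillation counts.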

Assay [2] concerns the target T2, HLA-B08.01 (human).
T2 construct: As for HLA-A02.01
As to the kind of experiment: pMHC-I complex dissociation at 37 C, 125I-b2m, half-life. As for the experimental part:
(§2) Briefly, synthetic genes encoding biotinylated MHC-I heavy and light chains are expressed in E. coli and purified from inclusion bodies using standard methods. […] These reactions are carried out in streptavidin coated microplates to bind the biotinylated MHC-I heavy chains to the surface and allow measurement of radiolabeled light chain to monitor complex formation. Dissociation is initiated by addition of higher concentrations of unlabeled light-chain and incubation at 37° C. Stability is defined as the length of time in hours it takes for half of the complexes to dissociate, as measured by scintillation counts.

Assay [3] deals with T3, HLA-A03.01 (human).
T3 construct: As for HLA-A02.01
As to the kind of experiment: competition vs radiolabeled reference peptide on purified MHC I, gel filtration. The protocol:
(§3) Peptides were incubated at varying concentrations with these complexes for 2 days, and the amount of remaining radiolabeled peptide bound to […] was measured using size exclusion gel-filtration.
A general note: SEC sorts molecules by how far they enter the pores of the column.

In assay [4] the target is T4, HLA-A02.01 (human).
T4 construct: Purified class I MHC
As to the kind of experiment: pMHC-I dissociation half-life, 125I-b2m. In short, it runs like this: as §1

For assay [5], the target named is T4, HLA-A02.01. As to the kind of experiment: competition with radiolabeled reference peptide, purified MHC I. The protocol:
as §3

The target in assay [6] is HLA-A02.01 (human). As to the kind of experiment: competition vs radiolabeled reference peptide on purified MHC I, gel filtration. As for the experimental part: as §3
Assay [7] deals with HLA-A02.01 (human). As to the kind of experiment: pMHC-I complex dissociation at 37 C, 125I-b2m, half-life. As for the experimental part:
as §2

For assay [8], the target named is T5, HLA-A24.02 (human).
T5 construct: As for HLA-A02.01
As to the kind of experiment: competition vs radiolabeled reference peptide on purified MHC I, gel filtration. The protocol: as §3

For LPRKPTRAA (also called TP53, QPSL), the “Stability (T1/2 (h))” value in assay [1] was 0 h.

Take LQSLPRFILM (also called ALK, L1196M): in assay [2], the “Stability (T1/2 (h))” value was 0 h.

For the molecule SVCFFFFSV (also called CNOT1(+1)), the “Stability (T1/2 (h))” value in assay [2] worked out at 0 h.

NQRPILTII (also called TP53, R248Q): in assay [1], the “Stability (T1/2 (h))” value is 0 h.

Take MANGSLLNYL (also called BTK, C481S): in assay [2], the “Stability (T1/2 (h))” value was determined as 0 h.

Consider SLLNYLREM (also called BTK, C481S), for which the “Stability (T1/2 (h))” value in assay [2] worked out at 0 h.

Turning to TQLARFFPI (also called RNF43, RHTP), in assay [1], the “Stability (T1/2 (h))” value was determined as 0 h.

As usually defined, the IC50 is the point on the concentration scale where inhibition reaches its midpoint. In assay [3], MANGSLLNY (also called BTK, C481S) returned an IC50 of 35.6 nM.

In assay [3], CTTLNSPPLK (also called β2M, . . ; MPAV) showed an IC50 of 63.6 nM.

For CMGGMNQRPI (also called TP53, R248Q), the “Stability (T1/2 (h))” value in assay [4] and in assay [1] was 0 h throughout. The molecule further registered an IC50 in assay [5] of 3670 nM.

With CMGGMNWRPI (also called TP53, R248W), in assay [1], the “Stability (T1/2 (h))” value is 0 h.

With LTINKEEAL (also called BCR: ABL (e13a2, aka b2a2)), the “Stability (T1/2 (h))” value in assay [2] came out at 0 h.

For the molecule ALSEHCPTT (also called TP53, CSES), the “Stability (T1/2 (h))” value in assay [4] turned out to be 27.3 h. The IC50 in assay [5] was found to be 79 nM.

Take GMNQRPILTI (also called TP53, R248Q): the “Stability (T1/2 (h))” value in assay [4] was 0.4 h; in assay [1] it was 0 h. This molecule registered a half-inhibitory concentration (IC50) in assay [5] of 709 nM.

For the molecule GMNWRPILTI (also called TP53, R248W), the “Stability (T1/2 (h))” value in assay [1] was determined as 0 h.

With VQLIMQLMPF (also called EGFR, T790M), the “Stability (T1/2 (h))” value in assay [2] stood at 0 h.

For RMKVPLMK (also called FAM111B(-1)), in assay [3], the IC50 worked out at 33 nM.

On to KLFSCLSFLS (also called C15ORF40(+1)), for which the IC50 in assay [6] was 0.6 nM; in assay [3], 104 nM.

Take LLGRNSFEVC (also called TP53, R273C): in assay [4], the “Stability (T1/2 (h))” value came out at 0 h. This molecule also came in with an IC50 in assay [5] of 2080 nM.

In the case of YMCNSSCMGS (also called TP53, G245S), the “Stability (T1/2 (h))” value in assay [4] amounted to 0.8 h. This molecule also showed an IC50 in assay [5] of 81 nM.

Take QLIMQLMPF (also called EGFR, T790M): in assay [2], the “Stability (T1/2 (h))” value was 0 h.

With SMLTDSLFL (also called VHL, QCIL), the “Stability (T1/2 (h))” value in assay [4] turned out to be 9.8 h. Moreover, the half-inhibitory concentration (IC50) in assay [5] is 31 nM.

Regarding MALNSEALSV (also called TMPRSS2: ERG), the “Stability (T1/2 (h))” value in assay [1] is 0 h.

As for QLQDKFEHL (also called EGFR: SEPT14), the “Stability (T1/2 (h))” value in assay [7] turned out to be 0.6 h; in assay [2], 0 h.

For LTSSSREWK (also called β2M, . . ; SIRH), in assay [3], the 50% inhibitory concentration (IC50) was determined as 118 nM.

On to MQLMPFGCL (also called EGFR, T790M), for which the “Stability (T1/2 (h))” value in assay [2] is 0 h.

With TLNSPPLKK (also called β2M, . . ; MPAV), the IC50 in assay [3] was 5.4 nM.

For the molecule MQLMPFGCLL (also called EGFR, T790M), in assay [2], the “Stability (T1/2 (h))” value came out at 0 h.

With IMQLMPFGCL (also called EGFR, T790M), the “Stability (T1/2 (h))” value in assay [2] was found to be 0 h.

As for TTLNSPPLKK (also called β2M, . . ; MPAV), the half-maximal inhibitory concentration (IC50) in assay [3] was 14.3 nM.

For FFCYILNTMF (also called CNOT1(-1)), the half-inhibitory concentration (IC50) in assay [8] was determined as 73.4 nM.

In assay [3], LFFFFFETK (also called C15ORF40(+1)) had a half-maximal inhibitory concentration (IC50) of 413 nM.

As to SLPRFILMEL (also called ALK, L1196M), the “Stability (T1/2 (h))” value in assay [2] came out at 0 h.

Consider MNWRPILTI (also called TP53, R248W), for which the “Stability (T1/2 (h))” value in assay [1] stood at 0 h.

On to ELFPLIFPA (also called C11orf95: RELA), for which the “Stability (T1/2 (h))” value is 5.1 h in assay [7] and 0 h in assay [2]. Moreover, in assay [6], the IC50 stood at 13 nM.

ALFFFFFETK (also called C15ORF40(+1)) showed an IC50 in assay [3] of 216 nM.

Take IQLQDKFEHL (also called EGFR: SEPT14): the “Stability (T1/2 (h))” value amounted to 0.2 h in assay [7] and 0 h in assay [2]. Besides, in assay [6], the IC50 was determined as 4260 nM.

In assay [8], RMPPCLANF (also called C15ORF40(+1)) had a half-inhibitory concentration (IC50) of 8.7 nM.

Turning to SMNRRPILTI (also called TP53, G245S), in assay [1], the “Stability (T1/2 (h))” value came out at 0 h.

Take LLAFWDSQV (also called TP53, AAVG): in assay [4], the “Stability (T1/2 (h))” value was 12.8 h. In addition, in assay [5], the IC50 was 68 nM.

The molecule SLQPPPPGFK (also called C15ORF40(+1)) showed an IC50 in assay [3] of 19 nM.

In the case of GFKLFSCLSF (also called C15ORF40(+1)), the IC50 in assay [8] came to 643 nM.

Regarding MLTDSLFLPI (also called VHL, QCIL), the “Stability (T1/2 (h))” value in assay [1] worked out at 0 h.

SMNRRPILT (also called TP53, G245S): the “Stability (T1/2 (h))” value in assay [4] and in assay [1] was 0 h in each case. Further, the concentration for half-maximal inhibition (IC50) in assay [5] worked out at 3840 nM.

Regarding GMNQRPILT (also called TP53, R248Q), in assay [4], the “Stability (T1/2 (h))” value stood at 0 h. Moreover, in assay [5], the 50% inhibitory concentration (IC50) worked out at 3030 nM.

Consider GMNWRPILT (also called TP53, R248W), for which the “Stability (T1/2 (h))” value in assay [4] was determined as 0 h. This molecule returned an IC50 in assay [5] of 1130 nM.

As to CMGSMNRRPI (also called TP53, G245S), in assay [1], the “Stability (T1/2 (h))” value amounted to 0 h.

Take LLTSSSREWK (also called β2M, . . ; SIRH): the IC50 in assay [3] is 1770 nM.

In the case of NSFEVCVCA (also called TP53, R273C), the “Stability (T1/2 (h))” value in assay [4] was 0 h. In addition, the half-inhibitory concentration (IC50) in assay [5] was 2200 nM.

For the molecule NSFEVHVCA (also called TP53, R273H), the “Stability (T1/2 (h))” value in assay [4] came out at 0 h. This molecule gave an IC50 in assay [5] of 503 nM.

Consider VLERCPHRPI (also called FGFR3, S249C), for which the “Stability (T1/2 (h))” value in assay [7] and in assay [2] was 0 h throughout. Also, the half-inhibitory concentration (IC50) in assay [6] was found to be 15300 nM.

Turning to EYMANGSLL (also called BTK, C481S), the IC50 in assay [8] turned out to be 5 nM.

In assay [3], LSFLSSWDYR (also called C15ORF40(+1)) showed an IC50 of 101 nM.

In assay [8], RRMPPCLANF (also called C15ORF40(+1)) yielded an IC50 of 141 nM.

As for TTLNSPPLK (also called β2M, . . ; MPAV), in assay [3], the IC50 worked out at 9.8 nM.
